Patent publication US20200025774A1 (ENTEROME S A, published 2020)

What follows are binders tested against T1, HLA-A*0201 molecule expressed on human T2 cells (human) (assay: T2 cell HLA-A*0201 stabilisation assay, flow cytometry; ratio of the peptide concentrations inducing 20% of HLA-A*0201 expression).
T1 construct: also called HLA.A2.01
Description: T2 cells (2.10⁵ cells per well) were incubated with decreasing concentrations of peptides from 100 μM to 0.1 μM in a AIMV medium supplemented with 100 ng/μl of human β2m at 37° C. for 16 hours.
The analysis was performed by FACS (Guava Easy Cyte). […] The relative affinity is then determined as follows:

Compared with ALPFGFILV [peptide 1A9V], FLPFGFILM [peptide 1F9M] is lower in “In vitro binding affinity (relative affinity against reference peptide HIV pol 589-597)” value: 3.06 for the first, 2.62 for the second.

In the case of ILPFGFILA [peptide 1I9A], the “In vitro binding affinity (relative affinity against reference peptide HIV pol 589-597)” value is reported as 2.22.
